Results on 15 molecules are retold here after patent publication US12630600B2 (MEDIMMUNE LIMITED, priority 2022, dated 2026).

The target of test [1] is T1, Semaglutide (synthetic construct).
T1 sequence (peptide, Aib at 2; X20=Lys[O2Oc-O2Oc-γE-C18diacid]; C-terminal acid): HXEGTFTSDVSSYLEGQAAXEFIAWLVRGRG

The subject of another test is GLP-1R knockout mice. The experiment in a line: Glucose change in GLP-1R knockout mice. The note with it: GLP-1R KO mice, s.c., no somatostatin pretreatment. The class given is in vivo, mouse. Here is the method: (§1) They acclimated for a minimum of ˜1-2 weeks, and mice were sorted into groups (n=4-8/group) based on body weight. On day of study, mice were fasted briefly for 2 hrs prior to study start. In some studies, mice were pre-treated with octreotide (BaChem, 10 mg/kg) at 30 minutes prior to peptide injection. Glucose was measured via glucometer at various timepoints including −30 min (prior to octreotide when used in studies), 0 min (before peptide dose), 30, 60, 120, 180, 240, and 360 minutes. Since these studies are acute in nature, mice were re-used for multiple studies (no more than 3) and always allowed at least a minimum wash-out period of 1 week.

A further test concerns wildtype (WT) mice. Briefly: Glucose change in wildtype mice. The class given is in vivo, mouse. The note with it: s.c., no somatostatin pretreatment. Here is the method:
as §1, with “[…] and wildtype (WT) mice at 8-14 weeks of age were singly housed on standard chow diet (Envigo, 2918) and automatic water. They” for “They”

Test [2] has as its target T1, Semaglutide (synthetic construct). The source holds these as a separate data set.
The next test relates to Male C57Bl/6 mice. Briefly: Mouse acute food intake study. The format is in vivo. The note with it: s.c., food intake at 24 h vs vehicle. Here is the method:
Male C57Bl/6 mice obtained from Jackson Laboratories or Charles River at 8-9 weeks of age and were housed one per cage in BioDaq (Research Diets) cages. Mice were placed on Alpha Dri bedding, standard chow diet (Envigo, 2018) and given water pouches. Mice were allowed to acclimate for 1-2 weeks. Body weight was measured to ensure appropriate acclimation. After acclimation, mice were sham dosed a minimum of 2 times prior to initiation of food intake study. On study day, mice were placed in clean cage bottoms, weighed, and fasted for 6-8 hours. Mice were sorted into groups based on average 24-hour food intake data and body weight. 1-2 hours prior to lights out, mice were dosed subcutaneously with one vehicle or test peptide dissolved in an appropriate vehicle at 5 mL/kg. Mice were left undisturbed and allowed access to food and water for 48 hours. Automated food intake was monitored in the BioDaq system was monitored during this time. Discrete food intake data was exported into MS Excel from which cumulative food intake data was generated and analyzed.

The target in test [3] is T2, human GLP-1 receptor (human, UniProt P43220). The experiment in a line: cell-based or functional assay.
In test [4] the target is GLP-1R of the mouse (present in wildtype mice, absent in GLP-1R knockout mice) (mouse, UniProt O35659). Briefly: cell-based or functional assay.
Test [5] deals with T2, human GLP-1 receptor. The experiment in a line: cell-based or functional assay. This is another data set of the same source.
Test [6] has as its target T3, human glucagon receptor (human, UniProt P47871). Briefly: cell-based or functional assay.
Test [7] has as its target T2, human GLP-1 receptor. The experiment in a line: cell-based or functional assay. This is another data set of the same source.
The target in test [8] is T3, human glucagon receptor. Briefly: cell-based or functional assay. The source holds these as a separate data set.
Test [9] deals with T3, human glucagon receptor. The experiment in a line: cell-based or functional assay. This is another data set of the same source.

Several values for one entry are separate records, joined by “and”; a condition that tells them apart may be missing. Identical values can stand only once. Like-named read-outs stand apart in the source and are kept apart here. Starred links: 1 amine or outer side, 2 acyl side, 3 side chain; linkers in the order of their positions; H or OH if unused. Non-standard residues stand in square brackets, D forms with d. Residues, ends and D or L forms follow the SMILES beside them. Groups on a side chain read outwards from the residue. Primed or numbered codes have the meaning given here. No end group written: not given here. *: point of attachment. β‑dimethylArg = (S)-2-amino-5-guanidino-3,3-dimethylpentanoic acid, CC(C)(CCNC(=N)N)[C@H](N[*:1])C(=O)[*:2]; C20 diacid = O=C(O)CCCCCCCCCCCCCCCCCCC(=O)*; C18 diacid = O=C(O)CCCCCCCCCCCCCCCCC(=O)*; Dip = N[C@H](C(=O)O)C(c1ccccc1)c1ccccc1; γGlu = O=C(O)[C@H](CCC(=O)[*:2])N[*:1]; Palmitoyl = CCCCCCCCCCCCCCCC(=O)*; αMeF = C[C@](N)(Cc1ccccc1)C(=O)O; Myristoyl = CCCCCCCCCCCCCC(=O)*; (PEG)2 = polyethylene glycol 2; PEG2′ = polyethylene glycol 2; AEEA = NCCOCCOCC(=O)O; Aib = CC(C)(N)C(=O)O

“porcine pancreatic pepsin (from UniProt P00791) (enzyme)” came in with a % intact peptide over time (min), 30 (% intact peptide at 30 min) in [1] of 14.

For `CC[C@H](C)[C@H](NC(=O)[C@H](Cc1c[nH]c2ccccc12)NC(=O)[C@H](CCC(N)=O)NC(=O)[C@@H](NC(=O)[C@H](Cc1ccccc1)NC(=O)[C@H](CC(=O)O)NC(=O)[C@H](CCCCNC(=O)COCCOCCNC(=O)COCCOCCNC(=O)CC[C@H](NC(=O)CC[C@H](NC(=O)CCCCCCCCCCCCCCCCCCC(=O)O)C(=O)O)C(=O)O)NC(=O)[C@H](C)NC(=O)[C@H](C)NC(=O)[C@H](CCCNC(=N)N)NC(=O)[C@H](CO)NC(=O)[C@H](CC(=O)O)NC(=O)[C@H](CC(C)C)NC(=O)[C@H](Cc1ccc(O)cc1)NC(=O)[C@H](CCCCN)NC(=O)[C@H](CO)NC(=O)[C@@H](NC(=O)[C@H](CC(=O)O)NC(=O)[C@H](CO)NC(=O)[C@@H](NC(=O)[C@](C)(Cc1ccccc1)NC(=O)[C@H](CO)NC(=O)CNC(=O)[C@H](Cc1c[nH]cn1)NC(=O)C(C)(C)NC(=O)[C@@H](N)Cc1c[nH]cn1)[C@@H](C)O)C(C)C)C(C)C)C(=O)N[C@@H](C)C(=O)N[C@@H](CC(N)=O)C(=O)N[C@H](C(N)=O)[C@@H](C)O` [Peptide 289] (H-H[Aib]HGS[αMeF]TSDVSKYLDSRAAK([AEEA-AEEA-γGlu-γGlu-C20 diacid])DFVQWIANT-NH2; N-terminus assumed), the “GLP-1R KO % glucose change 120 min” value with GLP-1R knockout mice (10 nmol/kg) is listed as 8.9%; in the test on GLP-1R knockout mice (30 nmol/kg) it was 7.7%. Further, the “WT % glucose change 120 min” value in the test with wildtype (WT) mice (10 nmol/kg) is −8.5%.

In [2], “recombinant Neprilysin (from UniProt P08473) (enzyme)” displayed a % intact peptide over time, 24 hr (% intact peptide at 24 hr) of 48.

“H-Aib-Q-G-T-F-T-S-D-V-S-K-αMePhe-L-D-T-K-R-A-R-D-F-V-Q-W-L-L-E-Aib-G-acid [Peptide 195]”: the “24 hr % Vehicle Food Intake” value in the test with Male C57Bl/6 mice (dose 1 nmol/kg) is 102.1%; with Male C57Bl/6 mice (dose 3 nmol/kg), 84.0%; in the test with Male C57Bl/6 mice (dose 10 nmol/kg), 58.2% and 49.9%. For the same molecule, the “GLP-1R KO % glucose change −60 min” value is given as 35.3% in the test with GLP-1R knockout mice (10 nmol/kg) and 48.0% with GLP-1R knockout mice (30 nmol/kg). In addition, the figures for the “WT % glucose change 60 min” value with wildtype (WT) mice (10 nmol/kg) and in the test on wildtype (WT) mice (30 nmol/kg) were 1.4% and −17.0%, respectively.

Consider H[Aib]HGS[αMeF]TSDK([AEEA-AEEA-γGlu-C18 diacid])SK[αMeF]LDSRAAQD[αMeF]VQ[Aib]IANT (not fully specified (C-terminus)) [Peptide 393 of Table 9], for which the “hGLP-1R EC50 (pM)” value with human GLP-1 receptor [3] was 0.458 pM.

With H[Aib]HGS[αMeF]TSDVSK[αMeF]LDSRAAKD[αMeF]VQWIANT-NH2 (not fully specified (residue 20); also: X13: αMePhe or Y (table)) [Peptide 289], in [4], the “WT % glucose change 120 min” value was -16.1 % glucose change at 120 min, WT mice, 30 nmol/kg.

On to HSQGS[αMeF]TSDVSKK([(PEG)2-(PEG)2-γGlu-γGlu-Palmitoyl])LDS[β‑dimethylArg]AAQD[αMeF]VE[Aib]LANT-NH2 [Peptide 399], for which the “WT % glucose change 120 min” value in [4] is -45 % glucose change at 120 min, WT mice, 30 nmol/kg.

As to H[Aib]HGS[αMeF]TSDVSK[αMeF]LDSRAAQD[αMeF]VK([AEEA-AEEA-γGlu-C18 diacid])SIANT-NH2 (not fully specified) [Peptide 379], in the test with human GLP-1 receptor [5], the “hGLP-1R EC50 (pM)” value came to 71.8 pM. Besides, the “hGluc-R EC50 (pM)” value with human glucagon receptor [6] amounted to 85.7 pM.

Take H[Aib]QGS[αMeF]TSDVSKILDSK([(PEG)2-(PEG)2-γGlu-γGlu-Myristoyl])AAQD[αMeF]VQ[Aib]IINT-NH2 [Peptide 126]: in test [4], the “WT % glucose change 120 min” value was -46.2 % glucose change at 120 min, WT mice, 30 nmol/kg.

H[Aib]HGS[αMeF]TSDVSK[αMeF]LDSQAAQD[αMeF]VK([AEEA-AEEA-γGlu-γGlu-C20 diacid])[Aib]IANT-NH2 [Peptide 384]: in the test with human GLP-1 receptor [5], the “hGLP-1R EC50 (pM)” value turned out to be 797 pM. Further, in the test with human glucagon receptor [6], the “hGluc-R EC50 (pM)” value came out at 1240 pM.

B1: Peptide 357 (peptide)
peptide: HXHGSXTSDVSKXLDSQAAQDFVXWIANT
modifications: Aib at 2; αMePhe at 6, 13; Lys 24 acylated K(γE-γE-(PEG)2-γE-γE-C20diacid)24; C-terminal amide
With B1, the “hGLP-1R EC50 (pM)” value with human GLP-1 receptor [5] was 917 pM. Also, the “hGluc-R EC50 (pM)” value with human glucagon receptor [6] came to 550 pM.

In the case of HSQGS[αMeF]TSDVSK[Dip]LDSK([PEG2′-PEG2′-γGlu-γGlu-Myristoyl])AAQD[αMeF]VE[Aib]IINT-NH2 [Peptide 63], the “WT % glucose change 120 min” value in test [4] was -26.4 % glucose change at 120 min, WT mice, 10 nmol/kg.

As to H[Aib]HGS[αMeF]TSDVSKKLDSRAAQD[αMeF]VQ[Aib]IANT-NH2 (not fully specified (residue 13)) [Peptide 406 of Table 10], the “hGLP-1R EC50 (pM)” value with human GLP-1 receptor [7] came out at 458 pM. In addition, the “hGluc-R EC50 (pM)” value with human glucagon receptor [8] was found to be 7310 pM.

B2: Peptide 392 of Table 9 (peptide)
peptide: H[Aib]HGS[αMeF]TSDK([AEEA-AEEA-γGlu-C18 diacid])SK[αMeF]LDSRAAQD[αMeF]VQ[Aib]IANT-NH2
modifications: N-terminus assumed
SMILES: CC[C@H](C)[C@H](NC(=O)C(C)(C)NC(=O)[C@H](CCC(N)=O)NC(=O)[C@@H](NC(=O)[C@](C)(Cc1ccccc1)NC(=O)[C@H](CC(=O)O)NC(=O)[C@H](CCC(N)=O)NC(=O)[C@H](C)NC(=O)[C@H](C)NC(=O)[C@H](CCCNC(=N)N)NC(=O)[C@H](CO)NC(=O)[C@H](CC(=O)O)NC(=O)[C@H](CC(C)C)NC(=O)[C@](C)(Cc1ccccc1)NC(=O)[C@H](CCCCN)NC(=O)[C@H](CO)NC(=O)[C@H](CCCCNC(=O)COCCOCCNC(=O)COCCOCCNC(=O)CC[C@H](NC(=O)CCCCCCCCCCCCCCCCC(=O)O)C(=O)O)NC(=O)[C@H](CC(=O)O)NC(=O)[C@H](CO)NC(=O)[C@@H](NC(=O)[C@](C)(Cc1ccccc1)NC(=O)[C@H](CO)NC(=O)CNC(=O)[C@H](Cc1c[nH]cn1)NC(=O)C(C)(C)NC(=O)[C@@H](N)Cc1c[nH]cn1)[C@@H](C)O)C(C)C)C(=O)N[C@@H](C)C(=O)N[C@@H](CC(N)=O)C(=O)N[C@H](C(N)=O)[C@@H](C)O
Take B2: the “hGLP-1R EC50 (pM)” value with human GLP-1 receptor [3] was found to be 312 pM. Besides, the “hGluc-R EC50 (pM)” value with human glucagon receptor [9] was found to be 6920 pM.

B3: Peptide 382 (peptide)
peptide: H[Aib]HGS[αMeF]TSDVSK[αMeF]LDSR[Aib]AQDFVK([AEEA-AEEA-γGlu-γGlu-C18 diacid])SIANTGG-NH2
modifications: N-terminus assumed
SMILES: CC[C@H](C)[C@H](NC(=O)[C@H](CO)NC(=O)[C@H](CCCCNC(=O)COCCOCCNC(=O)COCCOCCNC(=O)CC[C@H](NC(=O)CC[C@H](NC(=O)CCCCCCCCCCCCCCCCC(=O)O)C(=O)O)C(=O)O)NC(=O)[C@@H](NC(=O)[C@H](Cc1ccccc1)NC(=O)[C@H](CC(=O)O)NC(=O)[C@H](CCC(N)=O)NC(=O)[C@H](C)NC(=O)C(C)(C)NC(=O)[C@H](CCCNC(=N)N)NC(=O)[C@H](CO)NC(=O)[C@H](CC(=O)O)NC(=O)[C@H](CC(C)C)NC(=O)[C@](C)(Cc1ccccc1)NC(=O)[C@H](CCCCN)NC(=O)[C@H](CO)NC(=O)[C@@H](NC(=O)[C@H](CC(=O)O)NC(=O)[C@H](CO)NC(=O)[C@@H](NC(=O)[C@](C)(Cc1ccccc1)NC(=O)[C@H](CO)NC(=O)CNC(=O)[C@H](Cc1c[nH]cn1)NC(=O)C(C)(C)NC(=O)[C@@H](N)Cc1c[nH]cn1)[C@@H](C)O)C(C)C)C(C)C)C(=O)N[C@@H](C)C(=O)N[C@@H](CC(N)=O)C(=O)N[C@H](C(=O)NCC(=O)NCC(N)=O)[C@@H](C)O
Turning to B3, the “hGLP-1R EC50 (pM)” value with human GLP-1 receptor [5] came out at 56 pM. Also, the “hGluc-R EC50 (pM)” value with human glucagon receptor [6] amounted to 329 pM.
